Measurements reported in patent US20210032330A1 (PHANES THERAPEUTICS, published 2021).
Substitutions are numbered along the chain they refer to.

B1: anti-TIM-3 monoclonal antibody 1-A19-A (antibody, V domains shown)
VH: EVQLQQFGAELVKPGASVKISCKASGYTFTDYNMDWVKQSHGKSLEWIGDIDPNYDITTYNQKFKGKATLTVDKSSSTAYMELRSLTSEDTAVYYCARGGHYRYDGYYALDYWGQGTSVTVSS
VL: DIVLTQSPASLAVSLGQRATISCKASQSVDYDGDSYMNWYQQKPGQPPKLLIYAASNLESGIPARFSGSGSGTDFTLNIHPVEEEDAATYYCQQSNEDPFTFGSGTKLEIK
notes: Mouse hybridoma mAb; captured on anti-mouse Fc biosensors
B2: anti-TIM-3 monoclonal antibody 10-M21-A (antibody, V domains shown)
VH: DVQLQESGPTLVKPSQTLSLTCSVTGDSITSGYWNWIRKFPGNKLEYMGYISYSGSTYYNPSLKSRISIIRDTSKNQYYLQLNSVTTEDTATYYCVSGNHFDYWGQGTTLTVSS
VL: DIQMTQSPSSLSASLGGKVTITCKASQDINRYIAWYQHKPGKGPRLLIHYTSTLQPGIPSRFSGSGSGRDYSFSISNLEPEDIATYYCLQYDNLLFTFGSGTKLEIK
notes: as for B1
B3: anti-TIM-3 monoclonal antibody 20-L10-A (antibody, V domains shown)
VH: QIQLVQSGPELKKPGETVKISCKASGYTFTNYGMNWVKQAPGKVLKWMVWINTYTGEPTYADDFKGRFAFSLETSASTAYLQINNLKNEDTATYFCARDAMDYWGQGTSVTVSS
VL: DVVMTQTPLSLPVSLGDQASISCRSSQSLVHSNGNTYLHWYLQKPGQSPKLLIYKVSNRFSGVPDRFSGSGSGTDFTLKISRVEAEDLGVYFCSQNTHVPWTFGGGTKLEIK
notes: as for B1
B4: anti-TIM-3 monoclonal antibody 15-L23-A (antibody, V domains shown)
VH: B3 VH with K23R, V44G, Y60F, N84I, A100T
VL: B3 VL with V2I
notes: as for B1
B5: anti-TIM-3 monoclonal antibody 8-F3-A (antibody, V domains shown)
VH: B3 VH with V44G, V49A, A100L, M101E, S109T, V110L
VL: B3 VL with N96T
notes: as for B1
B6: anti-TIM-3 monoclonal antibody 16-K5-A (antibody, V domains shown)
VH: QVQLQQSGAELVKPGASVKLSCKASGYTFTSSDINWVRQRPEQGLEWIGWIFPGDGSTKYNEKFKGKATLTTDKSSSTAYMQLSRLTSEDSAVYFCARGLDYWGQGTTLTVSS
VL: DIKMTQSPSSMYASLGERVTITCKASQDINSYLGWFQQKPGKSPKTLIYRADRLVDGVPSRFSGSGSGQDYSLTISSLEYEDMGIYYCLQYDEFPLTFGAGTKLELK
notes: Mouse hybridoma mAb (parent of the humanized H1L1, H2L1, H5L5, H7L5); captured on anti-mouse Fc biosensors; also called mouse anti-TIM-3 mAb 16-K5-A
B7: anti-TIM-3 monoclonal antibody 16-J5-A (antibody, V domains shown)
VH: DVQLVESGGGLVQPGGSRKLSCAASGFTFSSFGMNWVRQAPEKGLEWVAYISSGSSTIYYADTVKGRFTISRDNPKNTLFLQMTSLRSEDTAMYYCARWGRWADFDYWGQGTTLTVSS
VL: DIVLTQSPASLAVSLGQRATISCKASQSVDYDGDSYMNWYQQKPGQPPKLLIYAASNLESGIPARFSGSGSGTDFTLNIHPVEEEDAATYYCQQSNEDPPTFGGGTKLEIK
notes: as for B1
B8: anti-TIM-3 monoclonal antibody 18-N1-A (antibody, V domains shown)
VH: QVQLQQPGAELVRPGVSVKLSCKASGYTFTSYWMHWIKQRPEQGLERIGEINPSNGGTNYNEKFKNKATLTVDKSSSTAYMQLSSLTSEDSAVYYCARSYYTYDAIDYWGQGTSVTVSS
VL: DIVMSQSPSSLAVSAGEKVTMSCKSSQSLLNSRTRKNYLAWYQQKPGQSPKLLIYWASTRESGVPDRFTGSGSGTDFTLTISSVQAEDLAVYYCKQSYNLYTFGGGTKLEIK
notes: as for B1
B9: anti-TIM-3 monoclonal antibody 16-L3-A (antibody, V domains shown)
VH: QVQLQQSGPELVKPGASVKMSCKASGYTFTSYYIHWVKQRPGQGLEWIGWIYPGDGSTKYNEKFKGKTTLTADKSSSTAYMLLSSLTSEDSAIYFCATDRYDVAYWGQGTLVTVSA
VL: EIVLTQSPALMAASPGEKVTITCSVSSSISSSNLHWYQQKSETSPKPWIYGTSNLASGVPVRFSGSGSGTSYSLTISSMEAEDAATYYCQQWSSYPLTFGAGTKLELK
notes: as for B1
B10: anti-TIM-3 monoclonal antibody 5-K4-A (antibody, V domains shown)
VH: EVQLQQSGPELVKTGASVKISCKASGYSFTAYYIHWVKQSHGKSLEWIGHISCFNGATSYNQKFKGKATFTVDTSSSTAYMQFNSLTSEDSAVYYCARRGDFDRPEFAYWGQGTLVTVSA
VL: DIVLTQSPASLAVSLGQRATISCRASESVEYYGTSLMQWYQQKPGQPPKLLIYAASNVESGVPARFSGSGSGTDFSLNIHPVEEDDIAMYFCQQSRKVPWTFGGGTKLEIK
notes: as for B1
B11: anti-TIM-3 monoclonal antibody 6-I13-A (antibody, V domains shown)
VH: EVQLQQSGPELEKPGASVKISCKASGYSFTGYNMNWVKQSNGKSLEWIGNIDPYYGVTSYNQKFKGKATLTVDKSSSTAYMQLKSLTSEDSAVYYCASYSLTYDGYYPFAYWGQGTLVTVSA
VL: DIVLTQSPASLAVSLGQRATISCRASKSVSTSGYSYMHWYQQKPGQPPKLLIYLASNLESGVPARFSGSGSGTDFTLNIHPVEEEDAATYYCQHSRELPYTFGGGTKLEIK
notes: as for B1
B12: anti-TIM-3 monoclonal antibody 10-O15-A (antibody, V domains shown)
VH: QVQLQQSGADLVRPGASVKLSCKALGYTFTDYEMHWVKQTPVHGLEWIGAIHPGSGGTAYNQKFKGKATLTADKSSSTAYMELSSLTSEDSAVYFCSRSYYRYTGYFDVWGAGTTVTVSS
VL: B11 VL with T31A, I79V, Y100F, G104S
notes: as for B1
B13: H1L1 (antibody, V domains shown)
VH: EVQLVESGGGLVQPGGSLRLSCAASGYTFTSSDINWVRQAPGKGLVWIGWIFPGDGSTKYTPSLKDQATLSTDKAKNTAYLQMNSLRAEDTAVYFCARGLDYWGQGTLVTVSS
VL: DIQMTQSPSSLSASVGDRVTITCKASQDINSYLGWFQQKPGKAPKTLIYRADRLVDGVPSRFSGSGSGQDYTFTISSLQPEDIATYYCLQYDEFPLTFGQGTKLEIK
notes: also called humanized version of anti-TIM-3 mAb 16-K5-A, VH H1 with VL L1
B14: H2L1 (antibody, V domains shown)
VH: B13 VH with K74L
VL: B13 VL
notes: also called humanized version of anti-TIM-3 mAb 16-K5-A, VH H2 with VL L1
B15: Chimeric (antibody, V domains shown)
VH: B6 VH
VL: B6 VL
notes: detected with anti-human IgG-HRP; also called chimeric version of anti-TIM-3 mAb 16-K5-A
B16: H5L5 (antibody, V domains shown)
VH: QVQLQESGPGLVKPSETLSLTCTASGYTFTSSDINWVRQPPGKGLEWIGWIFPGDGSTKYNPSLKSRATLSTDKSKNQASLNLDSVSAADTAIYFCARGLDYWGKGSTVTVSS
VL: B13 VL with Q100P, L104V, E105D
notes: also called humanized version of anti-TIM-3 mAb 16-K5-A, VH H5 with VL L5
B17: H7L5 (antibody, V domains shown)
VH: B16 VH with T23K, D84S, S87T, I93V, S107T
VL: B13 VL with Q100P, L104V, E105D
notes: also called humanized version of anti-TIM-3 mAb 16-K5-A, VH H7 with VL L5
B18: 12-M11-A (antibody, V domains shown)
VH: QVQLQQSGAELAKPGASVKMSCKASGYFTSYWMHWVKQRPGQGLEWIGYINPITGYTEYNQKFKDKATLTADKSSSTAYMQLSRLTSEDSAVYYCARGVENFDYLYAMDYWGQGASVTVSS
VL: QIVLTQSPAIMSASPGEKVTMTCSASSSISYMHWYQQKPGTSPKRWIYDTSKLASGVPTRFNGSGSGTSYSLTISSMEAEDAATYYCHQRSSYRTFGGGTKLEIK
notes: also called anti-TIM-3 monoclonal antibody 12-M11-A
B19: 7-P15-A (antibody, V domains shown)
VH: B3 VH with V44G, V49G, A100L, S109T, V110L
VL: B3 VL with S81T, N96S, T97I, W101Y
notes: also called anti-TIM-3 monoclonal antibody 7-P15-A
B20: 18-O22-A (antibody, V domains shown)
VH: EVQLQQSGPELVKPGASVKVSCKASGYTFTSYVMHWVKQKPGQGLEWIGYINPYNDVTKYNEKFKGKATLTSDKSSSTAYMELSSLTSEDSAVYYCARSSDYDDGHWYFDVWGAGTTVTVSS
VL: DIVLTQSPASLAVSLGQRATISCKASQSVDYDGESYMNWYQQKPGQPPKLLIYVASNLESGIPVRFSGSGSGTDFTLNIHPVEEEDAATYYCQQSNEDPTWTFGGGTKLEIK
notes: also called anti-TIM-3 monoclonal antibody 18-O22-A
B21: 6-H6-A (antibody, V domains shown)
VH: B1 VH with I57S, L110M
VL: DIVLTQSPASSAVSLGQRATFSCRASQSVSTSSYSFMHWYQQKPGQPPKLLIKYASNLESGVPARFSGSGSGTDFTLNIHPVEEEDTATYYCQHSWEIPPTFGGGTNLEIK
notes: also called anti-TIM-3 monoclonal antibody 6-H6-A
B22: 7-N2-A (antibody, V domains shown)
VH: QVQLKESGPGLVAPSQSLSITCTVSGFSLTGFGVNWVRQPPGKGLEWLGMIWGDGSTDYNSTLKSRLSISKDNSKSQVFLKMNSLQTDDTARYYCARDYYGYVGNAMDYWGQGTSVTVSS
VL: DIVMSQSPSSLAVSAGEKVTMSCKSSQSLLNSRTRKNYLAWYQQKPGQSPKLLIYWASTRESGVPDRFTGSGSGTDFTLTISSVQAEDLAVYYCKQSYNHMYTFGGGTKLEIK
notes: also called anti-TIM-3 monoclonal antibody 7-N2-A

target: T1, human T-cell immunoglobulin and mucin-domain containing molecule 3 (TIM-3) (human, UniProt Q8TDQ0 22-200, limits assumed); assay: BLI (OCTET Red96), mAb on anti-mouse Fc biosensor, antigen in solution, 1:1 model
T1 construct: also called Human TIM-3
Experimental: Binding experiments were performed on OCTET Red96 at 25° C. Antibodies were loaded onto Anti-Mouse Fc (AMC) biosensors. Loaded sensors were dipped into serial dilutions of antigen. Kinetic constants were calculated using a monovalent (1:1) model. The assay buffer was PBS supplemented with 0.1% BSA, 500 mM NaCl, 0.02% Tween-20, pH 7.2.

| Kd | Binder |
| --- | --- |
| 2.2 nM | B1 |
| 16 nM | B2 |
| 10 nM | B3 |
| 13 nM | B4 |
| 1.6 nM | B5 |
| 7.9 nM | B6 |
| 2.7 nM | B7 |
| 1.1 nM | B8 |
| 14 nM | B9 |
| 1.8 nM | B10 |
| 9.9 nM | B11 |
| 3.1 nM | B12 |

target: T1, human T-cell immunoglobulin and …; assay: ELISA, recombinant human TIM-3(ECD)-6His coated on the plate, anti-human IgG-HRP detection, absorbance at 450 nm
Experimental: (§1) Recombinant human TIM-3(ECD)-6His in carbonate coating buffer was coated on an ELISA plate at 4° C. overnight.

| EC50 (read off the curve) | Binder |
| --- | --- |
| ~0.07 nM | B13 |
| ~0.09 nM | B14 |
| ~0.09 nM | B15 |

target: T1, human T-cell immunoglobulin and …; assay: as above; remark: another data set of the same source
Experimental: as §1

| EC50 (read off the curve) | Binder |
| --- | --- |
| ~0.2 nM | B16 |
| ~0.1 nM | B17 |
| ~0.2 nM | B15 |

target: T1, human T-cell immunoglobulin and …; assay: competition ELISA: pre-equilibrated mixture of mAb and human TIM3(ECD)-huFc on plate-coated phosphatidylserine (PtdSer, a lipid), anti-huFc-HRP detection, % inhibition
Experimental: (§2) ELISA plates were coated with PtdSer or PtdChol, washed and incubated with a pre-equilibrated mixture of purified antibodies at various concentrations and TIM3(ECD)-huFc. The plates were washed and then the signal was detected by incubation with HRP-coupled anti-huFc secondary antibody and then a HRP substrate. TIM-3 binding to PtdSer was used as 100% signal and TIM-3 binding to PtdChol as zero (background) to calculate percent of inhibition by a given mAb.
(§3) To determine the effect of anti-TIM-3 antibodies on the interaction of TIM-3 with phosphatidylserine (PtdSer), 384-well ELISA plates were coated with PtdSer or phosphatidylcholine (PtdChol) at room temperature. The wells were washed using PBS supplemented with 0.1% Tween-20 and then blocked using PBS supplemented with 2% bovine serum albumin (BSA). […] The plates were washed and then incubated with HRP-coupled anti-huFc secondary antibody. Plates were washed, incubated with an HRP substrate, and read using a POLARstar Omega Microplate (BMG LABTECH). The assay was performed in triplicate.

| IC50 (read off the curve) | Binder |
| --- | --- |
| ~7 nM | B18 |
| ~6 nM | B10 |

target: T1, human T-cell immunoglobulin and …; assay: as above; remark: another data set of the same source
Experimental: as §2, §3

| binding result | Binder |
| --- | --- |
| binds | B19 |
| binds | B20 |

target: T1, human T-cell immunoglobulin and …; assay: as above; remark: another data set of the same source
Experimental: as §2, §3

| binding result | IC50 (read off the curve) | Binder |
| --- | --- | --- |
| binds | – | B21 |
| – | ~7 nM | B22 |
| – | ~4 nM | B11 |
